Data reported in US20100323957A1 (University of California, published 2010).

Molecular target: wild-type EGFR kinase domain (residues 672-998 of human EGFR) with N-terminal 6-His tag, linker and TEV site (human, UniProt P00533 672-998)
Assay: cell-based or functional assay

## SYLNGVMPPTQSFAPDPKYVSSKAL [25-residue MIG6 peptide (residues 340-364)]
  IC50, inhibition of activated EGFR kinase: ~100 µM
